These results are taken from publication PMC6224091.

B1: V5-Par6A (wild type) [not stated] / YFP-Tuba [not stated] (parent)
chain 1: MARPQRTPARSPDSIVEVKSKFDAEFRRFALPRASVSGFQEFSRLLRAVHQIPGLDVLLGYTDAHGDLLPLTNDDSLHRALASGPPPLRLLVQKRAEADSSGLAFASNSLQRRKKGLLLRPVAPLRTRPPLLISLPQDFRQVSSVIDVDLLPETHRRVRLHKHGSDRPLGFYIRDGMSVRVAPQGLERVPGIFISRLVRGGLAESTGLLAVSDEILEVNGIEVAGKTLDQVTDMMVANSHNLIVTVKPANQRNNVVRGASGRLTGPPSAGPGPAEPDSDDDSSDLVIENRQPPSSNGLSQGPPCWDLHPGCRHPGTRSSLPSLDDQEQASSGWGSRIRGDGSGFSL
chain 2: MEAGSVVRAIFDFCPSVSEELPLFVGDIIEVLAVVDEFWLLGKKEDVTGQFPSSFVEIVTIPSLKEGERLFVCICEFTSQELDNLPLHRGDLVILDGIPTAGWLQGRSCWGARGFFPSSCVRELCLSSQSRQWHSQSALFQIPEYSMGQARALMGLSAQLDEELDFREGDVITIIGVPEPGWFEGELEGRRGIFPEGFVELLGPLRTVDESVSSGNQDDCIVNGEVDTPVGEEEIGPDEDEEEPGTYGVALYRFQALEPNELDFEVGDKIRILATLEDGWLEGSLKGRTGIFPYRFVKLCPDTRVEETMALPQEGSLARIPETSLDCLENTLGVEEQRHETSDHEAEEPDCIISEAPTSPLGHLTSEYDTDRNSYQDEDTAGGPPRSPGVEWEMPLATDSPTSDPTEVVNGISSQPQVPFHPNLQKSQYYSTVGGSHPHSEQYPDLLPLEARTRDYASLPPKRMYSQLKTLQKPVLPLYRGSSVSASRVVKPRQSSPQLHNLASYTKKHHTSSVYSISERLEMKPGPQAQGLVMEAATHSQGDGSTDLDSKLTQQLIEFEKSLAGPGTEPDKILRHFSIMDFNSEKDIVRGSSKLITEQELPERRKALRPPPPRPCTPVSTSPHLLVDQNLKPAPPLVVRPSRPAPLPPSAQQRTNAVSPKLLSRHRPTCETLEKEGPGHMGRSLDQTSPCPLVLVRIEEMERDLDMYSRAQEELNLMLEEKQDESSRAETLEDLKFCESNIESLNMELQQLREMTLLSSQSSSLVAPSGSVSAENPEQRMLEKRAKVIEELLQTERDYIRDLEMCIERIMVPMQQAQVPNIDFEGLFGNMQMVIKVSKQLLAALEISDAVGPVFLGHRDELEGTYKIYCQNHDEAIALLEIYEKDEKIQKHLQDSLADLKSLYNEWGCTNYINLGSFLIKPVQRVMRYPLLLMELLNSTPESHPDKVPLTNAVLAVKEINVNINEYKRRKDLVLKYRKGDEDSLMEKISKLNIHSIIKKSNRVSSHLKHLTGFAPQIKDEVFEETEKNFRMQERLIKSFIRDLSLYLQHIRESACVKVVAAVSMWDVCMERGHRDLEQFERVHRYISDQLFTNFKERTERLVISPLNQLLSMFTGPHKLVQKRFDKLLDFYNCTERAEKLKDKKTLEELQSARNNYEALNAQLLDELPKFHQYAQGLFTNCVHGYAEAHCDFVHQALEQLKPLLSLLKVAGREGNLIAIFHEEHSRVLQQLQVFTFFPESLPATKKPFERKTIDRQSARKPLLGLPSYMLQSEELRASLLARYPPEKLFQAERNFNAAQDLDVSLLEGDLVGVIKKKDPMGSQNRWLIDNGVTKGFVYSSFLKPYNPRRSHSDASVGSHSSTESEHGSSSPRFPRQNSGSTLTFNPSSMAVSFTSGSCQKQPQDASPPPKECDQGTLSASLNPSNSESSPSRCPSDPDSTSQPRSGDSADVARDVKQPTATPRSYRNFRHPEIVGYSVPGRNGQSQDLVKGCARTAQAPEDRSTEPDGSEAEGNQVYFAVYTFKARNPNELSVSANQKLKILEFKDVTGNTEWWLAEVNGKKGYVPSNYIRKTEYT

In this experiment the parent is B1. Put plainly: co-immunoprecipitation (IP: GFP), quantified blot. The conditions noted are these: with YFP-Tuba; HEK293T cells; co-expressed with HA-Cdc42(G12V); n = 4; parent: 1; read off a plot.
As to chain 1 MARPQRTPARSPDSIVEVKSKFDAEFRRFALPRASVSGFQEFSRLLRAVHQIPGLDVLLGYTDAHGDLLPLTNDDSLHRALASGPPPLRLLVQKRAEADSSGLAFASNSLQRRKKGLLLRPVAPLRTRPPLLAALPQDFRQVSSVIDVDLLPETHRRVRLHKHGSDRPLGFYIRDGMSVRVAPQGLERVPGIFISRLVRGGLAESTGLLAVSDEILEVNGIEVAGKTLDQVTDMMVANSHNLIVTVKPANQRNNVVRGASGRLTGPPSAGPGPAEPDSDDDSSDLVIENRQPPSSNGLSQGPPCWDLHPGCRHPGTRSSLPSLDDQEQASSGWGSRIRGDGSGFSL [chain 1 I133A S134A], the ratio to parent was 0.73.
